Laboratory results reported in paper PMC5389673 (Nucleic Acids Research, 2016).

B1: VapC1 toxin from Caulobacter crescentus CB15, full length, seleno-methionine substituted (natural protein)
chain: MAYVLDTNVAIHLRDGDPEVTTRVTALNGAILLSIISRVELEGGVYREAAQAGLRRSRLDVMLKVLPVLDFDGAAADEYRRIVESAGYSRRKVVDRMIAAQALAHRATFVTFNADDFRDIPGLSLLAW
modifications: seleno-methionine in place of methionine
B2: VapB1 antitoxin from Caulobacter crescentus CB15, full length, seleno-methionine substituted (natural protein, UniProt Q9AC34 1-79, looked up)
chain: MARATGKTFRSGNSEAVRLPRDLAFGADVELTLIRSGDVLTIYPSKGSIADLVATLNQMPRPDSVEIRDEDLFPERPGL
modifications: seleno-methionine in place of methionine

Target: the molecule itself
Assay: crystal structure

Protein | stoichiometry N
B1 | 2
B2 | 2
